{
  "source": "paper PMC10576031",
  "about": "(Proceedings of the National Academy of Sciences of the …, 2023)",
  "binders": {"B1": {"name": "VDW nanobody (first generation, scaffold 1) (VHH)", "VHH": "QVQLQESGGGLVQPGGSLRLSCAASGRTFSSYNMGWFRQAPGKGREFVASITSSGDKSDYTDSVKGRFTISRDNAKNTMYLQMNNLKPEDTATYYCARGSVWIWYEPVDWSEGTQVTVSS"}},
  "key": {"[1]": {"molecular_target": "Human wild-type tau-K18 (residues 244 to 372), monomer (Homo sapiens, wild type, 2N4R (tau-F) …, UniProt P10636-8)", "sequence (P10636 561-689)": "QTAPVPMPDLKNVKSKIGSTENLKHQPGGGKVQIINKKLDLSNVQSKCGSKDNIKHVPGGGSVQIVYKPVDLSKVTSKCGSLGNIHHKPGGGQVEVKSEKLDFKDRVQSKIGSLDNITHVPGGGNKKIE", "assay": "far-Western, overlay or dot blot"}, "tau-K18 fibrils": {"molecular_target": "tau-K18 fibrils (Homo sapiens, wild type, 2N4R (tau-F) …, UniProt P10636-8)", "sequence (P10636 561-689)": "as above", "assay": "far-Western, overlay or dot blot"}},
  "data": [
    {"binder": "B1", "values": [
      {"measurement": "binding result", "setting": "[1]", "value": "binds"},
      {"measurement": "binding result", "setting": "tau-K18 fibrils", "value": "binds"}
    ]}
  ]
}
